From patent US20150239980A1 (NEOTOPE BOSCIENCES, published 2015)

T1: recombinant hMCAM-His (human, UniProt P43121 24-559)
T1 construct: not shown: His tag
T1 chain: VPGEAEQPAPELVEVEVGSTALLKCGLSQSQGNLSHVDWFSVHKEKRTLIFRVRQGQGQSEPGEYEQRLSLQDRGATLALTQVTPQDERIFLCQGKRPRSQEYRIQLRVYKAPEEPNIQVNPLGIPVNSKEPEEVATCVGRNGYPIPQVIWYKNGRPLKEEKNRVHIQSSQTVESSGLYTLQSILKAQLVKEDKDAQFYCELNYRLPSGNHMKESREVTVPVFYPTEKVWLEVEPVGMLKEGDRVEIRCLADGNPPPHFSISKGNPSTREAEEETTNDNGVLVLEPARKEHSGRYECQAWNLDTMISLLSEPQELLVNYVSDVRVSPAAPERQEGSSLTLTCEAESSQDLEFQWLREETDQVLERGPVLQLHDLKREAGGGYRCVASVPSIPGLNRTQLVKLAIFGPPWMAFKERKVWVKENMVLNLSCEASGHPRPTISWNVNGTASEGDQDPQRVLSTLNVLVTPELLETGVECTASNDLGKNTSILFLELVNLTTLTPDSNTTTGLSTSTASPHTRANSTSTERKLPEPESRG

T2: human MCAM (melanoma cell adhesion molecule) expressed on transfected CHO cells (human, UniProt P43121 24-646)
T2 construct: also called hMCAM; CD146
T2 chain: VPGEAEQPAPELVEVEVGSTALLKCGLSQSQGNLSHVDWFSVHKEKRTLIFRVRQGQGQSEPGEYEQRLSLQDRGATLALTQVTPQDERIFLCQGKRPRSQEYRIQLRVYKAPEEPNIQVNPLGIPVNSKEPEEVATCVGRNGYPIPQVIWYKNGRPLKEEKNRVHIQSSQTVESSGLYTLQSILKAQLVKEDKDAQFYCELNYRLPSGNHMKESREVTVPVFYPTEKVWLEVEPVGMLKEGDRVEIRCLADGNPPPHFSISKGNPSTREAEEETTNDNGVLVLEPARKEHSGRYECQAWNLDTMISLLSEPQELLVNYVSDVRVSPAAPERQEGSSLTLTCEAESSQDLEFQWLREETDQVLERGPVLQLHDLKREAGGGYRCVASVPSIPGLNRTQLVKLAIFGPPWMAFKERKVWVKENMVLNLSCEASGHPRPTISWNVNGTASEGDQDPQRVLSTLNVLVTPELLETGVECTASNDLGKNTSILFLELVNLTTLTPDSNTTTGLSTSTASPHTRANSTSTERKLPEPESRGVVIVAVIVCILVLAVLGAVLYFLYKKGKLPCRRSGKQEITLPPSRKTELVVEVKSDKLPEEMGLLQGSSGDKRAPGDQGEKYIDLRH


Legend:
[1] = biological target: T1, recombinant hMCAM-His; assay: ForteBio Octet Red, hMCAM-His analyte; Expt. #1; vs rodent 2107
Description: (§1) The affinities were measured using the ForteBio Octet Red. Anti-human Fc sensors were used to capture the humanized antibodies, and several concentrations of hMCAMHis analyte were used to determine the affinity using a 1:1 fitting model.

[2] = biological target: T1, recombinant hMCAM-His; assay: ForteBio Octet Red, hMCAM-His analyte; Expt. #2; vs rodent 2107
Description: as §1

[3] = biological target: T1, recombinant hMCAM-His; assay: summary of ForteBio and competitive ELISA on hMCAM-His; vs rodent 2107
Description: (§2) ELISA plates were coated with recombinant hMCAM-His, and blocked with casein buffer to prevent non-specific binding. Biotinylated rodent or chimeric antibody was added at a subsaturating concentration, in the presence or absence of 3× increasing concentrations of unlabeled competitor (humanized antibody, rodent, or chimeric). After washing to remove unbound antibody, streptavidin HRP was added to allow detection of the biotinylated antibody. The ELISA was developed with TMB substrate and the OD450 was measured. The IC50 of the unlabeled competitor was determined using the GraphPad Prism5 software.
as §1

[4] = biological target: T1, recombinant hMCAM-His; assay: ForteBio Octet Red, hMCAM-His analyte; Forte column 1; vs rodent 2107
Description: as §1

[5] = biological target: T1, recombinant hMCAM-His; assay: ForteBio Octet Red, hMCAM-His analyte; Forte column 2; vs rodent 2107
Description: as §1

[6] = biological target: T2, human MCAM (melanoma cell adhesion …); assay: laminin/FACS on hMCAM CHO cells, competitor laminin 411; Expt#1; vs rodent 2107
Description: (§3) Following incubation for 30-45 minutes, the cells were washed and anti-laminin conjugated to AF650 (NovusBio) was added to detect the bound laminin. The cells were run on a flow cytometer to measure the laminin binding signal.

[7] = biological target: T2, human MCAM (melanoma cell adhesion …); assay: summary of laminin blocking assay on hMCAM CHO cells, competitor laminin 411; vs rodent 2107
Description: as §3

[8] = biological target: T1, recombinant hMCAM-His; assay: competitive ELISA on hMCAM-His, competitor biotinylated rodent or chimeric 2107; vs rodent 2107
Description: as §2

[9] = biological target: T2, human MCAM (melanoma cell adhesion …); assay: laminin/FACS on hMCAM CHO cells, competitor laminin 411; Expt#2; reference row with 1.0 is chimeric 2107
Description: as §3

[10] = biological target: T1, recombinant hMCAM-His; assay: competitive ELISA on hMCAM-His, competitor biotinylated rodent or chimeric 2107; Expt. #1; vs rodent 2107
Description: as §2

[11] = biological target: T1, recombinant hMCAM-His; assay: competitive ELISA on hMCAM-His, competitor biotinylated rodent or chimeric 2107; Expt. #2; vs rodent 2107
Description: as §2

[12] = biological target: T2, human MCAM (melanoma cell adhesion …); assay: flow cytometry, human MCAM CHO cells preincubated with antibody, competitor recombinant human laminin 411 at 20 ug/ml
Description: The 87 independent mouse fusion clones and 26 independent rat fusion clones described in Example 10 above as being capable of (i) binding to human MCAM, and (ii) blocking the interaction between human MCAM and the α-4 chain of laminin were further characterized as follows. First, IC50 quantitation for the ability of the monoclonal antibody to block the binding of human MCAM to the α-4 chain of laminin was determined as follows. CHO cells expressing human MCAM were incubated with an anti-human MCAM antibody (at various concentrations) for 30 minutes at 4 degrees Celsius. […] Unbound laminin was then washed away, and the laminin bound to the surface of the cells was detected with fluorescently labeled anti-laminin antibodies. After washing, the amount of laminin bound to the surface was detected by flow cytometry, and IC50s were calculated based on the mean fluorescent intensity.
These six anti-MCAM monoclonal antibody clones are herein referred to as (i) the mouse anti-human MCAM monoclonal clones 1174.1.3, 1414.1.2, 1415.1.1, and 1749.1.3, and (ii) the rat anti-human MCAM monoclonal antibody clones 2120.4.19 and 2107.4.10. […] As such, each of these specific monoclonal antibodies was very capable of binding to human MCAM and inhibiting the interaction of cell-expressed human MCAM with its α-4 laminin binding ligand.

Row | fold over rodent (Forte affinity) [1] [fold] | fold over rodent (Forte affinity) [2] [fold] | fold reduction in affinity compared to the rodent [3] [fold] | fold over rodent (Forte affinity) [4] [fold] | fold over rodent (Forte affinity) [5] [fold] | fold over rodent (blocking, laminin/FACS) [6] [fold] | fold reduction in potency compared to the rodent [7] [fold] | fold over rodent (competitive ELISA) [8] [fold] | fold over rodent (blocking, laminin/FACS) [9] [fold] | fold over rodent (competitive ELISA) [10] [fold] | fold over rodent (competitive ELISA) [11] [fold] | IC50 [12] [µg/mL] | Binder
1 | 2.37 | 3.4 | < 3 | 3 | 2.8 | 1.9 | < 3 | 1.4 | 1.4 | 1.29 | 1.32 |  | h2107_VH1 + h2107_VL2 (antibody, human IgG1, V domains shown, also called VH1VL2) VH: QVTLKESGPVLVKPTETLTLTCTVSGFSLTSNGVSWVRQPPGKALEWIAAISSGGSTYYNSAFKSRLTISRDTSKSQVVLTMTNMDPVDTATYYCARHRPFYFDYWGQGTLVTVSS VL: DIQMTQSPSSLSASVGDRVTITCKGSQNIYKSLAWFQLKPGKVPKLLIYDANSLQTGIPSRFSGSGSGTDFTLTISSLQPEDVATYYCQQYYSGYTFGGGTKVEIK
2 | 2.54 | 3.58 | < 3 | 2.7 | 2.9 | 1.4 | < 3 | 1.3 | 1.5 | 1.32 | 1.48 |  | h2107_VH2 + h2107_VL2 (antibody, human IgG1, V domains shown, also called h2107VH2VL2; VH2VL2) VH: QVTLKESGPVLVKPTETLTLTCTVSGFSLTSNGVSWVRQPPGKALEWIAAISSGGSTYYNSAFKSRLSISRDTSKSQVVLTMTNMDPVDTATYYCARHRPFYFDYWGQGTLVTVSS VL: DIQMTQSPSSLSASVGDRVTITCKGSQNIYKSLAWFQLKPGKVPKLLIYDANSLQTGIPSRFSGSGSGTDFTLTISSLQPEDVATYYCQQYYSGYTFGGGTKVEIK
3 | 1 | 1 |  | 1 | 1 | 1 |  | 1 |  | 1 | 1 | 0.29 | rat anti-human MCAM monoclonal antibody clone 2107.4.10 (antibody, V domains shown, rat hybridoma antibody; elsewhere '83 or 84'); also called rodent 2107; murine 2107.4.10.18 anti-MCAM antibody) VH: QVQLKESGPGLVQSSQTLSLTCTVSGFSLTSNGVSWVRQPPGKGLEWIAAISSGGSTYYNSAFKSRLSISRNTSKSQVLLKMNSLQTEDTGMYFCARHRPFYFDYWGQGVMVTVSS VL: DIQVTQSPSLLSASVGDRVTLNCKGSQNIYKSLAWFRLKRGEAPKLLIYDANSLQTGIPSRFSGSGSGTDFTLTITSLQPEDVATYFCQQYYSGYTFGAGTKLELK
